From patent publication US20260226161A1 (EXELIXIS, published 2026)
Blank lines part the entries; values can stand above or below the binder they belong to.

Columns and labels:
PD-L1 expressed on cells [1] = target: T1, PD-L1 expressed on cells (UniProt Q9NZQ7 19-290, limits assumed); assay: cell-based or functional assay
[2] = target: T2, NKG2A expressed on KHYG-1 cells (endogenous) (human, UniProt P26715 1-233; Q13241 1-179); assay: cell-based or functional assay
PD-L1 expressed on cells [3] = target: T1, PD-L1 expressed on cells; assay: cell-based or functional assay; remark: listed apart in the source
[4] = target: T3, CD94 (in the NKG2A/CD94 heterodimeric ectodomain complex) (UniProt Q13241 32-179); assay: HDX-MS on the NKG2A/CD94 ectodomain complex
T3 construct: extracellular domain; Tested only as part of the complex; also called CD94 protein
T3 sequence (looked up): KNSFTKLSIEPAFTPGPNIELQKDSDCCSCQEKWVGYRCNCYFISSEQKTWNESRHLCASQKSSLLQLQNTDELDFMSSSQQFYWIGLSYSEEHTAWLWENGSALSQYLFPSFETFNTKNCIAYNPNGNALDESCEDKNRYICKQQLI
Experimental: Two different Quench conditions were used for digestion to improve the coverage. Both Data sets 1 and 2 were collected for 3 different timepoints (2, 10, and 60 mins) in triplicate. D₂O Buffer used was 20 mM Phos, 150 mM NaCl, pH 7.4. The relative fractional uptake greater than 5% was considered significant in the analysis.
Leap HDX auto sampler and Waters Cyclic IMS MS were the instruments used.
Quenching: The exchange reaction was quenched by a shift to acidic pH and a temperature drop (two proprietary conditions were used-potential variation in buffer formulation included the use of denaturants or reducing agents).

PD-L1 expressed on cells [5] = target: T1, PD-L1 expressed on cells; assay: flow cytometry on MC/CAR cells expressing PD-L1
[6] = target: T4, Human NKG2A & CD94 with mouse IgG2a Fc tag (AcroBiosystems) (human, UniProt P26715 94-233; Q13241 32-179, limits assumed); assay: SPR (Carterra), antibody on chip, soluble antigen
T4 construct: Bought soluble antigen of the Carterra assay; also called hNKG2A; not shown: mouse IgG2a Fc tag
T4 sequence (P26715 94-233 limits assumed, one chain of several): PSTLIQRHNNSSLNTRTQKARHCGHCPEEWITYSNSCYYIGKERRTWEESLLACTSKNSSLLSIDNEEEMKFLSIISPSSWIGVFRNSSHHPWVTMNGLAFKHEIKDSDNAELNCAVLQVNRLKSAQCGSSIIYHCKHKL

[7] = target: T5, Human PD-L1 with His tag (AcroBiosystems) (human, UniProt Q9NZQ7 19-238); assay: SPR (Carterra), antibody on chip, soluble antigen
T5 construct: Bought protein; also called hPD-L1; not shown: His tag
T5 sequence (Q9NZQ7 19-238 limits assumed): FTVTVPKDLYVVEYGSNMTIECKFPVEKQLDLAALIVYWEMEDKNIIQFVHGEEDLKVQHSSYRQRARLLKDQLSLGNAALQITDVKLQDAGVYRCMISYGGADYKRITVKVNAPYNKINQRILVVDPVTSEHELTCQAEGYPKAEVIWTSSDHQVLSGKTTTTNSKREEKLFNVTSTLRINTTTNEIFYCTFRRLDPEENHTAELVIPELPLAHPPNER

Cyno PD-L1 = Cyno PD-L1 (cyno, UniProt G7PSE7 19-238); assay: SPR (Carterra), antibody on chip, soluble antigen
Cyno PD-L1, sequence (G7PSE7 entry or part of it limits assumed): as the sequence (Q9NZQ7 19-238 limits assumed) above, with A33T, A34S, S62N, R68Q, Q82R, F173L, T185A, T192I, H215L counted along it

[8] = target: T2, NKG2A expressed on KHYG-1 cells …; assay: flow cytometry on KHYG-1 cells expressing endogenous NKG2A
[9] = target: T2, NKG2A expressed on KHYG-1 cells …; assay: flow cytometry competition; inhibition of HLA-E tetramer binding to KHYG-1 cells
Experimental: 15 μL per well of binder dilution at 2× concentration was plated in a 96-well plate (Costar 3897). 15 μL per well of cell suspension at 5×10⁶ cells per mL was added. Plates were placed at 4° C. for 30 minutes. Following the incubation, 5 μL per well of Fc block (BD Pharmingen Cat #564220) was added at a final concentration of 500 ng per well. Plates were placed at 4° C. for 10 minutes. […] Plates were placed at 4° C. for 1 hour. Following the incubation, 100 μL per well of PBS was added and plate was centrifuged at 400×g for 7 minutes. Supernatant was removed by flicking the plate. Cells were resuspended in 50 μL per well of PBS and analyzed by flow cytometry (Intellicyt).

[10] = target: T6, cynomolgus NKG2A/CD94 (soluble antigen of the equilibrium assay) (cynomolgus, UniProt Q68VD2 94-233; Q68VD4 32-179, Biotinylated in the Octet assays of Example 2; state in the SPR equilibrium assay not seen.); assay: SPR equilibrium response, Langmuir isotherm; antibody on chip, soluble antigen
T6 construct: also called Cyno NKG2A/CD94; copies: 1 + 1
T6 sequence (NKG2A, as listed by the source limits assumed, chain 1 of 2): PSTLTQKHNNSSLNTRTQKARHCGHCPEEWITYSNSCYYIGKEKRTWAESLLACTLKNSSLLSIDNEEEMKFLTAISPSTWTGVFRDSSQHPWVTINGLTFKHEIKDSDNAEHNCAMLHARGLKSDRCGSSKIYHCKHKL
T6 sequence (CD94, as listed by the source limits assumed, chain 2 of 2): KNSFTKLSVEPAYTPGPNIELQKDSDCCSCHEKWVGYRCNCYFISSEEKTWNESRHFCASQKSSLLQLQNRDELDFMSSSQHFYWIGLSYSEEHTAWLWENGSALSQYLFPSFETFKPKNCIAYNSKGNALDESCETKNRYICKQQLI
Experimental: In addition, a method using an equilibrium approach was performed. Kd determinations for cynomolgus NKG2A/CD94 were performed by measuring the signal response at equilibrium. […] The equilibrium response signals and corresponding antigen concentrations were then input into a Langmuir binding isotherm model, and the Kd was determined through nonlinear regression. Averages and standard deviations were calculated from 24 replicate chip locations for each molecule.

[11] = target: T7, biotinylated human NKG2C/CD94 heterodimer (extracellular domains, Fc fusions) (human, UniProt P26717 94-231; Q13241 32-179, biotinylated); assay: selection summary of Examples 2-5 (Octet binding)
T7 construct: not shown: N-terminal Fc (hole)
T7 sequence (P26717 other isoform, or with tags, fused parts or gaps): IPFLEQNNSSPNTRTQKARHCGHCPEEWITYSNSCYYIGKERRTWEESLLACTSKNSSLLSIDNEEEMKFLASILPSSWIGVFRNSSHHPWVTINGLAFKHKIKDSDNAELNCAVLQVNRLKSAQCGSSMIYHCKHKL

[12] = target: T8, biotinylated cyno NKG2A/CD94 heterodimer (extracellular domains) (cynomolgus, UniProt Q9MZJ3 94-233; Q9MZK9 32-179, biotinylated); assay: selection summary of Examples 2-5 (Octet binding)
T8 construct: also called Cynomolgus NKG2A protein; not shown: fusion partner/tags ('similar approach' to the human proteins); fusion partner ('similar approach')
T8 sequence (Q9MZJ3 other isoform, or with tags, fused parts or gaps, chain 1 of 2): as the sequence (NKG2A, as listed by the source limits assumed, chain 1 of 2) above
T8 sequence (Q9MZK9 32-179, chain 2 of 2): as the sequence (CD94, as listed by the source limits assumed, chain 2 of 2) above

[13] = target: T2, NKG2A expressed on KHYG-1 cells …; assay: flow cytometry on KHYG-1 cells expressing endogenous NKG2A; remark: listed apart in the source
Experimental: Antibodies that were selected for binding to NKG2A, for example, such as those described in Examples 1 and 2, were evaluated for binding to cells that express NKG2A.
Cells were harvested at 70-90% confluence on the day of the assay. Cells were collected by centrifugation at 200×g for 5 minutes and media was removed. Cells were resuspended at 2×10⁶ cells per mL in cold PBS. […] 50 μL per well of the antibody dilution was plated in a 96 well V-bottom plate (Costar 3897). 50 μL per well of cell suspension was added. Plates were placed at 4° C. for 45-60 minutes.

T1 sequence (Q9NZQ7 19-290 limits assumed): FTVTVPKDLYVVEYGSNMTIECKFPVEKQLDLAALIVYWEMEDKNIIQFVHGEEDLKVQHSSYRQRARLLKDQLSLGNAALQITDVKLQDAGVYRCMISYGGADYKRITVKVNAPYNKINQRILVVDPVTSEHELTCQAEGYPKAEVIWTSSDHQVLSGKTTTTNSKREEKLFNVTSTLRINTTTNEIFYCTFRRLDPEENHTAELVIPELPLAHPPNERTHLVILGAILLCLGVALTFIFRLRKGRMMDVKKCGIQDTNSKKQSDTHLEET

IC50 of inhibiting PD-1/PD-L1 interaction in PD-L1+MDA-MB-231 cells (PD-1/PD-L1 Signaling Bioassay, chemiluminescent signal) (PD-L1 expressed on cells [1]): 557 pM | EC50 (read off the curve) of doublet formation between NKG2A+ KHYG-1 and PD-L1+ LCL721.221-PD-L1 cells [2]: ~0.2 nM | EC50 (read off the curve) of doublet formation between NKG2A+ KHYG-1 and PD-L1+ LCL721.221-PD-L1 cells (PD-L1 expressed on cells [3]): ~0.2 nM | binding result [4]: no binding | EC50 (PD-L1 expressed on cells [5]): 2.17 nM | Kd [6]: 0.38 nM | koff [6]: 9e-05 s⁻¹ | kon [6]: 240000 M⁻¹ s⁻¹ | Kd [7]: 0.17 nM | koff [7]: 8e-05 s⁻¹ | kon [7]: 470000 M⁻¹ s⁻¹ | Kd (Cyno PD-L1): 0.11 nM | koff (Cyno PD-L1): 6e-05 s⁻¹ | kon (Cyno PD-L1): 540000 M⁻¹ s⁻¹ | EC50 [8]: 2.8 nM | EC50 [9]: 66 nM | Kd [10]: 49 nM
B1: P12 × A11 (1 × 1 format) (bispecific antibody)
heavy 1: DIQMTQSPSSLSASVGDRVTITCRASQSVSSAVAWYQQKPGKAPKLLIYSASSLYSGVPSRFSGSRSGTDFTLTISSLQPEDFATYYCQQFMLEPITFGQGTKVEIKGQPREPQVCTLPPSRDELTKNQVSLTCLVRGFYPSDIAVEWESNGQPENNYKTTPPVLDSDGSFFLYSKLTVDKSRWQQGNVFSCSVMHEALHNHYTQKSLSLSPGKDKTHTCPPCPAPEAAGGPSVFLFPPKPKDTLMISRTPEVTCVVVDVSHEDPEVKFNWYVDGVEVHNAKTKPREEQYNSTYRVVSVLTVLHQDWLNGKEYKCKVSNKALKAPIEKTISKAKGQPREPQVYTLPPSREEMTKNQVSLSCAVKGFYPSDIAVEWESNGQPENNYKTTPPVLDSDGSFFLVSKLTVDKSRWQQGNVFSCSVMHEALHNHYTQKSLSLSPGK
light 1: EVQLVESGGGLVQPGGSLRLSCAASGFTFSSYYIHWVRQAPGKGLEWVATINSRGGFTLYADSVKGRFTISADTSKNTAYLQMNSLRAEDTAVYYCARGYTLTPVLDYWGQGTLVTVSSAQPREPQVYTLPPCRDWLTKNQVSLTCLVKGFYPSDIAVEWESNGQPENNYKTTPPVLDSDGSFFLYSKLTVDKSRWQQGNVFSCSVMHEALHNHYTQKSLSLSPGK
heavy 2: not shown
light 2: EVQLVESGGGLVQPGGSLRLSCAASGFTFSWYYIHWVRQAPGKGLEWVAVIDPISSYTYYADSVKGRFTISADTSKNTAYLQMNSLRAEDTAVYYCARGFDRAMDYWGQGTLVTVSSASTKGPSVFPLAPSSKSTSGGTAALGCLVKDYFPEPVTVSWNSGALTSGVHTFPAVLQSSGLYSLSSVVTVPSSSLGTQTYICNVNHKPSNTKVDKKVEPKSC
notes: One PD-L1 site, one NKG2A site; also called P12×A11, sFc; P12×A11 (sFc)

binding result [11]: no binding | binding result [12]: binds | EC50 [13]: 26.7 nM
B2: Antibody Clone A42 (antibody, human IgG1, kappa, V domains shown)
VH: EVQLVESGGGLVQPGGSLRLSCAASGFTFSWYYIHWVRQAPGKGLEWVAVIDPISSYTYYADSVKGRFTISADTSKNTAYLQMNSLRAEDTAVYYCARGFDRAMDYWGQGTLVTVSS
VL: DIQMTQSPSSLSASVGDRVTITCRASQSVSSAVAWYQQKPGKAPKLLIYSASSLYSGVPSRFSGSRSGTDFTLTISSLQPEDFATYYCQQYYSSPYTFGQGTKVEIKR
